Consider two molecules from PMC6324938 (Developmental cell, 2018).

The assay addresses T1, Gdi1 (GDP dissociation inhibitor) (UniProt P39958 1-451).
T1 sequence (looked up): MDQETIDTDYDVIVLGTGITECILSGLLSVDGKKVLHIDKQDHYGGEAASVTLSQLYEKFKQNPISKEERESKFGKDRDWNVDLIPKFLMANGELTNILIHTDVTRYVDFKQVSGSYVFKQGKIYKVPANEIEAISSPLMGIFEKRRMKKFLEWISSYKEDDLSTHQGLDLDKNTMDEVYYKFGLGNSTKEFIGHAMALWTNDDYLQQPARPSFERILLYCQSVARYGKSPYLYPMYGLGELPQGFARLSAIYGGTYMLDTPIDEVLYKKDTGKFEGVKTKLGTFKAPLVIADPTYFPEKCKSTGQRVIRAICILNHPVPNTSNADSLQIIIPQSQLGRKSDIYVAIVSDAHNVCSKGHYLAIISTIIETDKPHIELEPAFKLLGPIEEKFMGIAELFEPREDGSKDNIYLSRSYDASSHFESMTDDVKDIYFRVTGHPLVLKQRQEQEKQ
As to the kind of experiment: SEC.

B1: prenylated Ypt1 (mantGDP-labeled, of the Rab/GDI substrate) (natural protein)
chain: not shown
modifications: prenylated (geranylgeranyl) at the C-terminus; loaded with mantGDP
As to B1, the binding result is reported as “binds”.

B2: prenylated Ypt31 (mantGDP-labeled, of the Rab/GDI substrate) (natural protein, S. cerevisiae, UniProt P38555 1-223, looked up)
chain: MSSEDYGYDYDLLFKIVLIGDSGVGKSNLLSRFTKNEFNMDSKSTIGVEFATRTLEIDGKRIKAQIWDTAGQERYRAITSAYYRGAVGALIVYDISKSSSYENCNHWLSELRENADDNVAVGLIGNKSDLAHLRAVPTEESKTFAQENQLLFTETSALNSENVDKAFEELINTIYQKVSKHQMDLGDSSANGNANGASAPNGPTISLTPTPNENKKANGNNCC
modifications: prenylated (geranylgeranyl) at the C-terminus; loaded with mantGDP
Turning to B2, the binding result was “binds”.
